Measurements: publication doi:10.1101/2024.09.20.614183, “Rubisco packaging and stoichiometric composition of a native β-carboxysome” (bioRxiv, 2024)

Biological target: T1, Rubisco L8S8 hexadecamer (Form IB ribulose 1,5-bisphosphate carboxylase/oxygenase) of Synechococcus elongatus … (Synechococcus elongatus PCC7942 …, UniProt Q31NB3 1-472; Q31NB2 1-111)
T1 construct: RbcL, Rubisco large subunit, Synechococcus elongatus PCC7942; printed MW 52.4 kDa; RbcS, Rubisco small subunit, Synechococcus elongatus PCC7942; printed MW 13.3 kDa; Native holoenzyme imaged inside isolated β-carboxysomes; never isolated on its own; also called Rubisco complex; Rubisco holoenzyme; source: endogenous, inside β-carboxysomes purified from Syn7942 (sucrose gradient …)
Experiment: cryo-EM structure; cryo-electron tomography and subtomogram averaging (emClarity) of Rubisco inside intact β-carboxysomes isolated from Syn7942 grown under low light; 185 carboxysomes; D4 symmetry applied; 3.5 Å
Conditions: partners not purified

T1 sequence (Q31NB2 whole entry, chain 2 of 2, other chains not shown): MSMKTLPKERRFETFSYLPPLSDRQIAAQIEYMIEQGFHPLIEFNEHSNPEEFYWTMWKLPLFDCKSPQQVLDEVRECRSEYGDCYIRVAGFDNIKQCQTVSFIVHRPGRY

stoichiometry N: 4 SSUL domains per Rubisco
B1: CcmM, Rubisco-scaffolding linker protein of the Syn7942 β-carboxysome (natural protein, UniProt Q03513-2 1-324, looked up)
chain: MSAYNGQGRLSSEVITQVRSLLNQGYRIGTEHADKRRFRTSSWQPCAPIQSTNERQVLSELENCLSEHEGEYVRLLGIDTNTRSRVFEALIQRPDGSVPESLGSQPVAVASGGGRQSSYASVSGNLSAEVVNKVRNLLAQGYRIGTEHADKRRFRTSSWQSCAPIQSSNERQVLAELENCLSEHEGEYVRLLGIDTASRSRVFEALIQDPQGPVGSAKAAAAPVSSATPSSHSYTSNGSSSSDVAGQVRGLLAQGYRISAEVADKRRFQTSSWQSLPALSGQSEATVLPALESILQEHKGKYVRLIGIDPAARRRVAELLIQKP
notes: CcmM, Synechococcus elongatus PCC7942; Mixture of CcmM58 and CcmM35 in the native carboxysome; only an SSUL module is resolved; also called CcmM SSUL; CcmM58; source: endogenous, inside β-carboxysomes purified from Syn7942 (sucrose gradient ultracentrifugation)
